Entries after “also recorded” stand apart in the source; their conditions may differ.
Experiments:
RECON = biological target: T1, RECON (Mus musculus, UniProt Q8VC28); assay: Gel shift assay, radiolabeled nucleotide binding to RECON (native PAGE); details: radiolabeled nucleotide, 0, 4, 20, 100 μM protein
T1 construct: 6xHis-SUMO2 (N, cleaved yes); made in house; host or cells: E. coli BL21 CodonPlus (DE3)-RIL
T1 sequence (Q8VC28 1-323): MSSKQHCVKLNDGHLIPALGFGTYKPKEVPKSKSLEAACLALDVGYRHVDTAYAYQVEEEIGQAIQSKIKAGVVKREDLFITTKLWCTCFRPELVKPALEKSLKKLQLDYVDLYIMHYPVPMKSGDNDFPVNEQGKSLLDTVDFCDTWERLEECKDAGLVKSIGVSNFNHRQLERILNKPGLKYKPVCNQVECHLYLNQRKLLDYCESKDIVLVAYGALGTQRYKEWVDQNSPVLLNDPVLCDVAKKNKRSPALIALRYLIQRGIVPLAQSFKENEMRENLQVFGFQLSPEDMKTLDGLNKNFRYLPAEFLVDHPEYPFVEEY
Protocol: (§1) Briefly, recombinant Mus musculus STING or RECON, at 4, 20, or 100 μM was incubated with radiolabeled nucleotide (≤1 μM final concentration) in gel shift buffer for final conditions of 50 mM Tris pH 7.5, 60 mM KCl, 5 mM Mg (OAc) 2, and 1 mM DTT. Experiments were prepared by combining 1 μL of [α-^32P] labeled nucleotide, 2 uL 5x gel shift buffer, 5 μL of nuclease free water, and started by addition of 2 μL of recombinant protein in storage buffer.
(§2) After 30 min of equilibration, bound and free nucleotide were separated by 6% native PAGE in 0.5x TBE buffer. Gels were dried, and exposed to phosphorscreen prior to detection by Typhoon Trio Variable Mode Imager system (GE Healthcare). Gel shifts were quantified with ImageQuant® 5.2 and the % bound nucleotide was calculated as a proportion of total bound and free nucleotide for each lane, after subtraction of background signal. Gel shift data is representative of ≥2 independent experiments.

CapE = biological target: T2, CapE (Escherichia coli, UniProt Q6XGD4); assay: Phospholipase assay (EnzChek Phospholipase A1), CapE; format: biochemical, E. coli; details: 0.1, 1, and 10-fold molar ratios of nucleotide to phospholipase
T2 construct: made in house; host or cells: E. coli BL21 CodonPlus (DE3)-RIL
T2 sequence (Q6XGD4 whole entry): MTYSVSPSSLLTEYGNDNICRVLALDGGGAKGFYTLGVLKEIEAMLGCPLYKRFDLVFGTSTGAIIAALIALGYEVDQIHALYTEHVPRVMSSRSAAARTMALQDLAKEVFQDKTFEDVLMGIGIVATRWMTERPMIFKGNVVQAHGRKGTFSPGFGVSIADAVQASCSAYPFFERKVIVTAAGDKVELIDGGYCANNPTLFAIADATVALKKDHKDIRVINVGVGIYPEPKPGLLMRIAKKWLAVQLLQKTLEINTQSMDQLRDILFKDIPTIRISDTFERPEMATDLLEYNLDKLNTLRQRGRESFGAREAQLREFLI
Protocol: Patatin-like lipases were assayed as previously described (Gaspar & Machner (2014) Proc. Natl. Acad. Sci. U.S.A. 111:4560-4565). Briefly, CapV and CapE were produced recombinantly and catalytic activity was measured using the EnzChek® Phospholipase A1 Assay Kit (Invitrogen) according to the manufacturer's instructions. […] Assays were monitored fluorometrically Ex=460 nm/Em=515 nm, for 60 min at ˜90 s intervals at room temperature using a Biotek Synergy plate reader. Slope of each reaction in the linear range was used to calculate activity (Linear regression/straight line analysis, Prism 7.0c). A PLA1 standard curve from 20-0.02 U was used to interpolate phospholipase activity. Emission was monitored at a gain of 100 and/or 50 in order to extend the linear range of the assay.

Mus musculus STING = biological target: T3, Mus musculus STING (Mus musculus, UniProt Q3TBT3); assay: Gel shift assay, radiolabeled nucleotide binding to STING (native PAGE); details: radiolabeled nucleotide, 0, 4, 20, 100 μM protein
T3 construct: 6xHis-SUMO2 (N, cleaved yes); made in house; host or cells: E. coli BL21 CodonPlus (DE3)-RIL
T3 sequence (Q3TBT3 138-378 limits assumed): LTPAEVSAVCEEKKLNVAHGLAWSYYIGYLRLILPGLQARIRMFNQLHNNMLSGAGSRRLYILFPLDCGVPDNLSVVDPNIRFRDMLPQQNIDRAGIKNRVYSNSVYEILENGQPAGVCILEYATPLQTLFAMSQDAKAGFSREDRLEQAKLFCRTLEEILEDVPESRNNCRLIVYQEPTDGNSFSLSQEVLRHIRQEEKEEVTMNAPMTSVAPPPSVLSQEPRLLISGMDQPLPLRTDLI
Protocol: as §1, §2

[1] = Second messenger synthesis assay ([α-32P] NTPs, TLC, MS/NMR of products); format: biochemical; details: for nucleotide product synthesized by the enzyme: purified enzyme with [α-32P] NTPs, TLC, products confirmed by MS/NMR
Protocol: Recombinant, candidate nucleotidyltransferase reactions combined 4 μL of 5× reaction buffer (250 mM CAPSO pH 9.4, […], 25 mM Mg (OAc) 2, 5 mM DTT), 2 μL of 10× NTPs, 1 uL [α-^32P] NTPs (˜1 uCi), 1 μL of candidate enzyme in storage buffer (˜20 μM), and a remaining volume of nuclease free water. The final reactions (50 mM CAPSO pH 9.4, 50 mM KCl, 5 mM Mg (OAc) 2, 1 mM DTT, ≤5% glycerol, 25-250 μM individual NTPs, trace amounts of [(-^32P] NTP, 1 μM enzyme) were started with addition of enzyme. Where indicated, pH was altered by replacing CAPSO buffer with appropriate buffer from “StockOptions pH Buffer Kit” (Hampton Research). When appropriate, Mg^2+ was replaced with an equimolar concentration of Mn^2+(MnCl2). cGAS reactions were always carried out with Tris at pH 7.5 and supplemented with 1 μM ISD45 dsDNA (Stetson & Medzhitov. (2006) Immunity 24:93-103). Reactions were carried out with 25 μM of each indicated NTP for FIGS. 1B, 3D, 8B, 8C, and 8D and for FIGS. 2C, 2G-2I, 5B, 5C, 10A-10D, 11A, 11B, and 13D. Reactions in all other figures were carried out with 250 μM NTP. The NTP/[α-^32P] NTPs in FIG. 1B are cGAS (ATP, GTP/[α-^32P] GTP), DncV (ATP, GTP/[α-^32P] ATP), DisA (ATP/[α-^32P] ATP), WspR (GTP/[xx-^32P] GTP), and CdnE (NTP/[{-^32P] NTP). P1 nuclease treated reactions in FIG. 1C and FIG. 11B are cGAS (ATP, GTP/[α-^32P] ATP), DncV (ATP, GTP/[α-^32P] GTP), CdnE (ATP, UTP/[<- ^32P] ATP), and Lp-CdnE02 (CTP, UTP/ [α-^32P] UTP) . Where indicated, nonhydrolyzable nucleotides [Ap (c) pp, Gp (c) pp, Cp (c) pp, or Up (n) pp (Jena)] were used at 25 μM.
Reactions were incubated for 2 h at 37° C. prior to analysis unless otherwise stated. Reactions were stopped by addition of 5 U of alkaline phosphatase (New England Biolabs) which removed triphosphates on remaining NTPs and converted the remaining nucleotide [α-^32P] to ^32Pi and allowed visualization of cyclic nucleotides. After a >20 min incubation, […] (PEI-cellulose) or 1 uL (silica) of the reaction was spotted 1.5 cm from the bottom of the TLC plate, spaced 0.8 cm apart. 20 cm×20 cm F-coated PEI-cellulose TLCs (Millipore) were developed in 1.5 M KH2PO4 (pH 3.8) until the buffer front reacted ˜1 cm from the top; 20 cm×10 cm F-coated silica HP-TLC plates (Millipore) were developed in 11:7:2 1-propanol: NH4OH: H2O in a chemical fume hood for 1 hour. Plates were dried and exposed to phosphorscreen prior to detection by Typhoon™ Trio Variable Mode Imager system (GE Healthcare). All TLC data are representative of ≥3 independent experiments, with the exception of the biochemical screen which represents ≥2 independent experiments.
Cyclic nucleotides were produced in large scale using previously described methods (Sureka et al. (2014) Cell 158:1389-1401) with the following changes. Small-scale second messenger synthesis assays were scaled up to […] reactions with final conditions of 50 mM CAPSO pH 9.4, 12.5-50 mM KCl, 5-20 mM Mg (OAc) 2, 1 mM DTT, ≤5% glycerol, 250 μM individual NTPs, and 1 μM enzyme. A 20 μL aliquot of the larger reaction was removed and [cx-^32P] NTP were added to follow reaction progress. Reactions were incubated for 24 hours at which time 5 U of CIP/mL of reaction was added and the reaction was further incubated for 2-24 hours. Reactions were heat inactivated at 65° C. for 30 min, diluted to a final salt concentration of 12.5 mM, and purified by anion exchange chromatography and FPLC (either 1 mL Q-Sepharose® column, or Mono Q 4.6/100 PE, GE Healthcare). The column was washed with water and 1 mL fractions were collected during a gradient elution with 2M ammonium acetate. Fractions harboring the appropriate product were identified by A260 and silica TLC, visualizing the nucleotide products by UV-shadowing, imaging using a handheld camera, and comparing migration to paired, radiolabeled reactions. Selected fractions were concentrated by evaporation and re-suspended in 30 μL of nuclease free water for MS. […]

Nc1nc2c(ncn2[C@@H]2O[C@@H]3COP(=O)(O)O[C@H]4[C@@H](O)[C@H](n5cnc6c(N)ncnc65)O[C@@H]4COP(=O)(O)O[C@H]3[C@H]2O)c(=O)[nH]1 [3′3′ cGAMP, 3′-5′/3′-5′ cGAMP, reference compound]
recognition/binding of nucleotide by RECON (RECON): detected by both STING and RECON | activation of CapE phospholipase activity (CapE): exquisite specificity of CapE insulates this circuit from 3′3′ cGAMP

Nc1ncnc2c1ncn2[C@@H]1O[C@@H]2COP(=O)(O)O[C@H]3[C@@H](O)[C@H](n4cnc5c(N)ncnc54)O[C@@H]3COP(=O)(O)O[C@H]2[C@H]1O [c-di-AMP, cyclic di-AMP, reference compound]
recognition/binding of nucleotide by RECON (RECON): detected by both STING and RECON

Nc1nc2c(ncn2[C@@H]2O[C@@H]3COP(=O)(O)O[C@H]4[C@@H](O)[C@H](n5cnc6c(=O)[nH]c(N)nc65)O[C@@H]4COP(=O)(O)O[C@H]3[C@H]2O)c(=O)[nH]1 [c-di-GMP, cyclic di-GMP, reference compound]
recognition/binding of nucleotide by STING (Mus musculus STING): detected by STING

B1: CdnE: E. coli cGAS/DncV-like nucleotidyltransferase, SEQ ID NO: 166 (protein, listed as Escherichia coli)
chain: MGIPESQLDTWSHQGSIAQSASTYSIIKNALESANTKYHGKNFKVFLQGSYGNDTNIYAESDVDVVICLDDVYYSDLTQLSPEDKDAYDRAFVPATYSYTQFKQDVLEALTERFGSDVKVGDKAIVVAANGSRRKADVIASMQFRRYWKFKGHYDSQYDEGICFFNGAGERIANYPKQHSENLTLKHQASNKWLKPMVRVLKNLRSKLIADGKLKSGLAPSYYLEGLLYNVPNEKFGTSYADCFVNAMNWIQTEADKDKLVCANEQYYLLWEGTHTSWEKADAEAFIDAAIKMWNEW
requirement of a cognate stimulus for enzyme activity [1]: constitutively active and does not require a cognate stimulus | nucleotide product synthesized by the enzyme [1]: cyclic UMP-AMP (cUMP-AMP) | nucleotide product synthesized by the enzyme ([1]; listed as wild-type CdnE): robustly synthesized cUMP-AMP

B2: Em-CdnE: CdnE from Elizabethkingia meningoseptica, SEQ ID NO: 201 (protein, listed as Elizabethkingia meningoseptica)
chain: MNFSEQQLINWSRPVSTTEDLKCQNAITQITAALRAKFGNRVTIFLQGSYRNNTNVRQNSDVDIVMRYDDAFYPDLQRLSESDKAIYNAQRTYSGYNFDELKADTEEALRNVFTTSVERKNKCIQVNGNSNRITADVIPCFVLKRFSTLQSVEAEGIKFYSDDNKEIISFPEQHYSNGTEKTNQTYRLYKRMVRILKVVNYRLIDDGEIADNLVSSFFIECLVYNVPNNQFISGNYTQTLRNVIVKIYEDMKNNADYTEVNRLFWLFSNRSPRTRQDALGFMQKCWNYLGYQ
nucleotide product synthesized by the enzyme [1]: robustly synthesized cyclic dipurines; also recorded: synthesis of c-di-AMP, cGAMP, and c-di-GMP

B3: Ec-CdnD02: CD-NTase from Enterobacter cloacae, SEQ ID NO: 112 (protein, listed as Enterobacter cloacae)
chain: MELQPQFNEFLANIRPTDTQKEDWKSGARTLRERLKNFEPLKEIVVSTFLQGSIRRSTAIRPLGDKRPDVDIVVVTNLDHTRMSPTDAMDLFIPFLEKYYPGKWETQGRSFGITLSYVELDLVITAIPESGAEKSHLEQLYKSESVLTVNSLEEQTDWRLNKSWTPNTGWLSESNSAQVEDAPASEWKAHPLVLPDREKNEWGRTHPLAQIRWTAEKNRLCNGHYINLVRAVKWWRQQNSEDLPKYPKGYPLEHLIGNALDNGTTSMAQGLVQLMDTFLSRWAAIYNQKSKPWLSDHGVAEHDVMARLTAEDFCSFYEGIASAAEIARNALASEEPQESAQLWRQLFGSKFPLPGPQGGDRNGGFTTPSKPAEPQKTGRFA
nucleotide product synthesized by the enzyme [1]: cyclic AMP-AMP-GMP (cAAG), a cyclic trinucleotide, is the major product

B4: Rm-CdnE: CdnE homolog from Rhodothermus marinus, SEQ ID NO: 198 (protein, listed as Rhodothermus marinus)
chain: MPVPESQLERWSHQGATTTAKKTHESIRAALDRYKWPKGKPEVYLQGSYKNSTNIRGDSDVDVVVQLNSVFMNNLTAEQKRRFGFVKSDYTWNDFYSDVERALTDYYGASKVRRGRKTLKVETTYLPADVVVCIQYRKYPPNRKSEDDYIEGMTFYVPSEDRWVVNYPKLHYENGAAKNQQTNEWYKPTIRMFKNARTYLIEQGAPQDLAPSYFLECLLYNVPDSKFGGTFKDTFCSVINWLKRADLSKFRCQNGQDDLFGEFPEQWSEEKARRFLRYMDDLWTGWGQ
nucleotide product synthesized by the enzyme [1]: synthesized cUMP-AMP
